# Test results reported in patent US20170267776A1 (published 2017).
# Changes are numbered by the printed parent chain.
# T1: LGR5-Fc fusion protein (mature form containing amino acids 22-564 of human LGR5 fused to human Fc) (human, UniProt O75473 22-564)
# T1 construct: range 22-564; Expressed in insect cells (baculovirus) and purified by protein A; also called soluble LGR5-Fc; not shown: human Fc
# T1 sequence (looked up): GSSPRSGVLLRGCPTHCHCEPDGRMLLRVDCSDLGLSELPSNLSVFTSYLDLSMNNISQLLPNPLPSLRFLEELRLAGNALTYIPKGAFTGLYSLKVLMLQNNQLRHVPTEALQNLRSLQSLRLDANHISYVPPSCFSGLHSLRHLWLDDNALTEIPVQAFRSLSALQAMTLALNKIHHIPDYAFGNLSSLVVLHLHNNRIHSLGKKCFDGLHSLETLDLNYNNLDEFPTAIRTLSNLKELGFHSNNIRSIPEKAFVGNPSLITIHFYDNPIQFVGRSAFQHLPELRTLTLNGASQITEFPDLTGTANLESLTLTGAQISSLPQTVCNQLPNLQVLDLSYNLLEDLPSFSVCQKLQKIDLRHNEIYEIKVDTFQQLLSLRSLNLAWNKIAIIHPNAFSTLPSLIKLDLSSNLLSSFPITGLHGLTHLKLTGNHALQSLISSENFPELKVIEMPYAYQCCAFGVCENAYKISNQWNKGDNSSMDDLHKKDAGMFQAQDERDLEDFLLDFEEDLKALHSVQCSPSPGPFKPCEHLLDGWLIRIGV
# T2: recombinant human RSPO3 protein, biotinylated (captured on streptavidin-coated chips) (human, UniProt Q9BXY4 22-272, limits assumed, biotinylated (sites not given))
# T2 sequence: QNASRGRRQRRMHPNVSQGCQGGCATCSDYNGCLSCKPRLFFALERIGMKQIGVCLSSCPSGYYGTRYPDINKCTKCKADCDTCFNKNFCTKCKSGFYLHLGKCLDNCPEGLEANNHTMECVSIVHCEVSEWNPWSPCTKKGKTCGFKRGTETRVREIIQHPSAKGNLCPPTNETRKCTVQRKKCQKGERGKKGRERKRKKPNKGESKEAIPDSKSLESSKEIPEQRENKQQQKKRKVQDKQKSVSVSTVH
# B1: RSPO4-Fc fusion protein (full-length human RSPO4 ligated in-frame to a human Fc region) (Fc fusion, UniProt Q2I0M5 20-234, looked up)
# chain: LNRRKKQVGTGLGGNCTGCIICSEENGCSTCQQRLFLFIRREGIRQYGKCLHDCPPGYFGIRGQEVNRCKKCGATCESCFSQDFCIRCKRQFYLYKGKCLPTCPPGTLAHQNTRECQGECELGPWGGWSPCTHNGKTCGSAWGLESRVREAGRAGHEEAATCQVLSESRKCPIQRPCPGERSPGQKKGRKDRRPRKDRKLDRRLDVRPRQPGLQP
# notes: not shown: human Fc region
# B2: anti-RSPO3 antibody 131R002 (IgG2) (antibody, V domains shown)
# VH: QVQLQESGPELVKPGASVKISCKASGYTFTDYSIHWVKQNHGKSLDWIGYIYPSNGDSGYNQKFKNRATLTVDTSSSTAYLEVRRLTFEDSAVYYCATYFANYFDYWGQGTTLTVSS
# VL: DIVLTQSPASLAVSLGQRATISCKASQSVDYDGDSYMNWYQQKPGQPPKLLIYAASNLESGIPARFSGSGSGTDFTLNIHPVEEEDAATYYCQQSNEDPLTFGAGTKLELKR
# B3: anti-RSPO3 antibody 131R003 (IgG2) (antibody, V domains shown)
# VH: B2 VH with Q5K, E6Q, S76Y
# VL: B2 VL
# notes: also called parental 131R003
# Legend:
# [1] = target: T1, LGR5-Fc fusion protein (mature form …); test: SPR (Biacore 2000): RSPO-Fc immobilised on CM5 chip, soluble LGR5-Fc injected 100 nM to 0.78 nM
# Protocol: Binding affinities between RSPO proteins and LGR5 were analyzed by surface plasmon resonance. A soluble LGR5-Fc construct was generated using standard recombinant DNA techniques. Specifically, amino acids 1-564 of human LGR5 were ligated in frame to human Fc and the recombinant LGR5-Fc fusion protein was expressed in insect cells using baculovirus. The LGR5-Fc fusion protein was purified from the insect medium using protein A chromatography. Cleavage of the LGR5 signal sequence results in a mature LGR5-Fc fusion protein containing amino acids 22-564 of LGR5. […] Two-fold dilutions of soluble LGR5-Fc were injected over the chip surface (100 nM to 0.78 nM). Kinetic data were collected over time using a Biacore 2000 system from Biacore Life Sciences (GE Healthcare) and the data were fit using the simultaneous global fit equation to yield affinity constants (KD values) for each RSPO protein (Table 3).
# [2] = target: T2, recombinant human RSPO3 protein, …; test: summary of Example 3 (SPR, Biacore 2000)
# Protocol: The antibodies were serially diluted 2-fold from 100 nM to 0.78 nM in HBS-P (0.01M HEPES pH 7.4, 0.15M NaCl, 0.005% v/v Surfactant P20) and were injected over the chip surface. Kinetic data were collected over time and were fit using the simultaneous global fit equation to yield affinity constants (KD values) for each antibody.
binder,measurement,setting,value
B1,Kd,[1],73 nM
B2,Kd,[2],< 10 nM
B3,Kd,[2],< 10 nM
